According to the DeepSol protein solubility set:

Assay: soluble on expression in E. coli; label from the status in PepcDB or PDB records

| Sequence | soluble on expression in E. coli |
| --- | --- |
| MKILVTGTEGYLGSLLPSLLIAKGHEVSGLDTGFYKVGWLYNGTNITAKTLNKDIRNIIPEDLEGVDAIVHMAELSNDPAGQLAPHITYEINHLGSVHLANLAKRMGVRRFLYMSSCSVYGVASEGDVTEESPVNPQTAYAECKTLVERDIKPLADDDFSPTFMRNATAFGASPRMRFDIVLNNLSGLAWTTKEIKMTSDGTPWRPLVHALDICQAIICALEAPRDIVHNQVFNVGDTANNYRVKEIAEIIADTFPSCKLTFGNNGSDNRSYRVSFEKINTVLPGFKCEWNAQTGAKQLFDLFSQIDMTEDTFLFRGFTRLKQLEYLIRTQQIDQNFFWAKCDNVVV | not soluble |
| MGQKMKNAPVYFTIAQVRHNPVLRLGSYAPDIQDRMRKAGYPDFKKGIAMAFTLAPQLGDAPQTQPPVVEQVERLMFFSTDSTRGFIVEQNALSFHTTEYETFEALADEFMRGLAIVHECVTLAHSERIGLRYLDAVVPPGGETGLAEYLAPGVLGLSSRLPEDVTVSHSFSETHIQTAKCAVLARTIIQSGPLGFPMDLQPIGVKVADRFREINGVHAIVDTDASIEGRHPFNLELIKSQLQVLRDGVGIAFDATVTPIAVSAWNS | not soluble |
| GAMIRSRQPLLDALGVDLPDELLSLALTHRSYAYENGGLPTNERLEFLGDAVLGLTITDALFHRHPDRSEGDLAKLRASVVNTQALADVARRLCAEGLGVHVLLGRGEANTGGADKSSILADGMESLLGAIYLQHGMEKAREVILRLFGPLLDAAPTLGAGLDWKTSLQELTAARGLGAPSYLVTSTGPDHDKEFTAVVVVMDSEYGSGVGRSKKEAEQKAAAAAWKALEVLDNAMPGKTSA | soluble |
| MGFLNKLLSSEGPRKPKVKFDLQKCKVLLKGGENRIRLQKSKLAVCNLLASPVPALKNLFNKNSVKLQQREVAVLLEGGKDELARIRAEQMVRDELLIESYEIVEVLCETLLTRHNLLALNFHATKENPYPPLPPEIAEAVCSIAFASCRLDASELQTLTEMLASRFGPELIDSACAGQPSQRVWGVNSLVNPRLYSKLLYSVPDGNVVLQKLQDIADMFQLEWKAPAEFEELKDHSVLDSTASTPVFSGNAQRARYLPEASSFSDEKIGDDVFCTNESEQTEEGRDPSDDLSARLEALKRNR | not soluble |
| MGSDKIHHHHHHMLVVPAIDLFRGKVARMIKGRKENTIFYEKDPVELVEKLIEEGFTLIHVVDLSNAIENSGENLPVLEKLSEFAEHIQIGGGIRSLDYAEKLRKLGYRRQIVSSKVLEDPSFLKSLREIDVEPVFSLDTRGGRVAFKGWLAEEEIDPVSLLKRLKEYGLEEIVHTEIEKDGTLQEHDFSLTKKIAIEAEVKVLAAGGISSENSLKTAQKVHTETNGLLKGVIVGRAFLEGILTVEVMKRYAR | not soluble |
| MKISPSLMCMDLLKFKEQIEFIDSHADYFHIDIMDGHFVPNLTLSPFFVSQVKKLATKPLDCHLMVTRPQDYIAQLARAGADFITLHPETINGQAFRLIDEIRRHDMKVGLILNPETPVEAMKYYIHKADKITVMTVDPGFAGQPFIPEMLDKLAELKAWREREGLEYEIEVDGSCNQATYEKLMAAGADVFIVGTSGLFNHAENIDEAWRIMTAQILAAKSEVQPHAKTA | soluble |
| MRRMVDHDALHRRWLGALVGARGGAAQPDPAPYGENLLRRWSEPQRRYHTVEHLAAVLDRVDLLAEYADDPDVVRLAAWFHDAVYFPDRSENEERSARLAERALPEAGVSGARTAEVARLVRLTVTHDPADDDRDGRVLCDADLAILAAPPKTYAAYAAAVREEYAFVPDDSFRAGRAAVLRQLLDLPRLFRTPYGEREWEERARENLREELARLDDRGTSGAAQLEHHHHHH | not soluble |
| GDALTSPQQTKLYLSSVLRDRQREAFYILFLDNQHRVIRDEILFEGTIDAASVYPREVVKRALHHNAAAVILAHNHPSGVAEPSQADRRITDRLRDALGLVEIRVLDHFVVGDGEVVSFAERGWI | soluble |
| MSVQLKCDAVNCVYNRSHLCSAEEIEVQGGETTGGDATFCGTFSSKSLGNFVSSLGNMNYSGSLKQAVSAEPIMDPKVHCNAVNCTYNDQRYCHADQVEIRNEVSHTAEETECQTFYPKMSLEHHHHHH | not soluble |
| MSLTATAPCPYACGLCSLHENHSALVNIVVTNRCDLSCFYCFFYAERAGYIYEPSIEQIKFMVRQVARQRQGSDVHVNIQITGGEPTVREDLVDVVKAIREAGAHYIQLNTNGINVARRYLDNPPGAIDYVRSLREAGVSVVYMSFDGVTPKVNWKNHYEAPFALKAFQEGGLDNVVLVPTVIRTINDHEVGDIIRFAGKHIDVVRGVNFQPVSLTGMMRKHERERMRITIPDVIKRIEEQTDGQIPMDAWYPVPVVAKFVKAIDALTGKLYDTLSNHPACGSATYVFALERDRYGVPRRFLPITEVIDVEGFIEFLDEERIKLEHNSGRLSRLKVAAEIVWRARRFVDFDREGHHHHHH | not soluble |
| MLSATLLNRTVFHSLSPLHSLAHLASDMESSVNKAPSLIAAIVLGLGISACGYFVGDGVKHLKTNNRYVNVRGLSEKEVRADTAELTIAINFKGNVPGELFPKLEEAQKKIVAELNAQGINEKEIILGQWTSKRTDSFYLKDDPTMPRYNADGSVTIKTHNVAAVEKVVAKLNELQVATDGAIAESKVAYRFNGIGALRAEMIAAATKDARNAALQFATDSGSQVGSISDASQGVFQIFASGSDEDDPTAINKTVRVVTTVTYALQD | not soluble |
| SQYKNISEKIVHIIQQEFDTDLTLESIAGRLHYNPNYLSSIFRKEMKISFSEYLSSYRHHIAKNWLTETTMSVKEISEKLKYKNPQNFIRSFKKLEGITPGKYRELKNHS | soluble |
| DRFVYTCNECKHHVETRWHCTVCEDYDLCITCYNTKNHDHKM | not soluble |
| MGSDKIHHHHHHLKIITVSGPPSSGKTSVIIKTIEYLKKDQLEIGVVKFDSLSTYDDQMYKKLGVKVKVGLSGNLCPDHYYMTNIEDCVKWGVSEKLDMLISESAGLCNRCSPHIRDVLAICVIDNLSGINTPKKIGPMLRLADIVVITKGDIVSQAEREVFAFRAKQSSPRASIVFINGITGQGAYDLSLRLKEANDYESVIDKKLRFSMPAAVCSYCTGEIRIGERYQTGNIKKIKL | not soluble |
| MCSHGHSHNCAAEHIPEVPGDDVYRYDMVSYIDMEKVTTLNESVDGAGKKVFKVMEKRDDRLEYVESDCDHELLFNIPFTGHVRLTGLSIIGDEDGSHPAKIRLFKDREAMSFDDCSIEADQEIDLKQDPQGLVDYPLKASKFGNIHNLSILVDANFGEDETKIYYIGLRGEFQHEFRQRIAIATYESRAQLKDHKNEIPDAVAKGLF | not soluble |
| MGSDKIHHHHHHMDFIEVYPNALPNDLCDRLILAFEQHAGVVDGQTGNGVDLEKKISRDLTLDSFADLQPLKNELLGYTLKGTVDYFTKYSMALMGAVAVSVSDEQGQPVTLTPANFAALGAPRSDGLVKYLYRSGSINVQKYQQNKGGYPHWHSEQFPQNGHNEALHRVVLYMFYLNDMEEGGETEFYYQQRKISPKKGTMVIAPAGFTHTHRGNKPVSGDKYIATSWIMFNRAEQLYAVIA | not soluble |
| EKATENSPLVMIEYSSPNTNKPLHLGHVRNNLLGNALANVMAANGNKVVKTNIVNDRGIHICKSMLAWLKYGNGETPESSGKKGDHLIGDYYVAFDKHYKAEVKELTAQYQAEGLNEEEAKAKAEANSPLMLEAREMLRKWEANDPEIRALWKKMNDWVYAGFDETYKMMGVSFDKIYYESNTYLEGKEKVMEGLEKGFFYRKEDNSVWADLTAEGLDHKLLLRGDGTSVYMTQDIGTAKLRFQDYPINKMIYVVGNEQNYHFQVLSILLDKLGFEWGKGLVHFSYGMVELPEGKMKSREGTVVDADDLMEAMIETAKETSAELGKLDGLTQEEADNIARIVGLGALKYFILKVDARKNMTFNPKESIDFN | not soluble |
| MAVDVFITAPSSTPLACEMTISKLVLASGSPRRRELLAQMGYQFEVVVPNVEEKRAAAESPAQYVERLSRDKALAGAALVAAEAVVIGSDTIVVKDQQVLEKPRDFADAKRMLLKLSGSQHQVMTGVSVTCRGITHSVVVTTEVWFKTLSEQEIEAYWQSGEPCDKAGSYGIQGLGGRFVTRIEGSYHAVVGLPLYETDQLLHKF | not soluble |
| MTDLEHAVESNRRAWDASADSHLRGGGWQELSLAVQETGFSCLDETLAGVLRNLDLAGKAAVQVGCNNGREVLSLYAFGVARAVGIDQSAAFLAQARQLAERSPHQPRFVEANAYELPAELNGQFDLLLITIGVLNWMPDIARFFASVSGLLKPGGQLAIYETHPFLEMLEPESERPFELRNDYFTDTPHVSREAIVYEGSGSDTGIASYWYVHPLGDILGGLLGAGLRLSHFKEYPHSNREELYDLYEDGPLAIPMCYTLVAVKA | soluble |
| MASTAAETEKPEDHNDLVQLCNPHIAAMKEDILYHFSLSTSTHDFPAMFGDVKFVCVGGSPSRMKAFIKYVAMELGFAHPGADYPNICEGTDRYAMFKVGPVLSVSHGMGVPSIAIMLHELIKLLYHAHCSGVTLIRIGTSGGIGLEPGSVVITRQAVDPCFKPEFEQIVLGKREVRNTDLDEQLVQELARCSAELGEFPTVVGNTMCTLDFYEGQGRLDGALCSYTEKDKQDYLRAAYAAGIRNIEMEASVFAAMCNACGLRAAVVCVTLLNRLEGDQISSPHDVLAEYQQRPQRLVGQFIKKRLMQA | soluble |
| MGSDKIHHHHHHMKLRILSDLHIEHAMPQAVPACDADIVILAGDIANGRDGIDWAARTFGQPLIYVPGNHEYYEGNVDAVDRLMADAAATHPGVHLLNGAVAEFSGASGRVRVLGTTWWTDYCLFGTDRREASMQACSAVMLDHRLIELNGDDGHLRHFSPEDALARHHIASAWLAGQLALPFDGKTVVVTHHGPDLGSLDPRYSHDLVSGGFLSRRPDLVAQADLWIHGHTHTSFDYCIDTSRVVCNPRGYVSRRTGELENSRFDWCCVVEI | not soluble |
| MTDSQSTQMGRGRHAKRNKSTASVGSKKNRTQSTASGKFQPSDGFTTFIVAVSRLGKQGQEFTWHDLRKVYHKETQRQLTAEELNAIFSSKNLTKREIFELPKVKRFMTSMDGSMMCRFRLIADPQEVYDDDLPPLMSTSVETDVITEDTSSDHSQAVSPSSGNPIAISTDCDDKAAGPTSDLSKSDNSPSQRSLAQQSSMTDDEGWVSGKDVRSENSSPVEDKDEVDGSKMEMEDDVFEEDQRIAAESDQVDSAMVADVIIVEEAKVEKLFKAQEIVAPIVLTESIDAAFEAVIQSVSHADATLSMTQNASEEAKVHATPPLPAERKTMVSAELANGKPIKHLIEKFDAGVNFAEHKPKSIYAQVLEEIGGSAPRVDEVFSASKKEEHAETEVTNVIFRSTSTHSSIIANGKEQLAEFVAEQEARQKVTTPNPVKEETENAFCAKEQSSMSSLDREYFASKTKLNEDLFAELGVKDTDGFQLKTVDSNGSGPGSSEIITVIETPLKDDHRKRADSVESDADVPYSLCSEDEAEPMTMIDKSMKVSQSAEQLSPVKEEQKAKTVVVNVELDGNRADPTIKDRIAALQAIVSKQHVPIAKVDSVDDDVRILSRTEELQHMALEAKPSPQALGALRRRHVRFMRGCCVVQ | soluble |
| MSLEKVKVAVIGAGNRGMYAYAPYIYENSDVCEIVAVAEPKKGRRELFTKKYNLDSKNVFETLEDFFKHDKMADAVIIATNDDRHYDVAKLALEKGYHVLLEKPMSNSLDGLVHIDDLCDKYKDKIFMICHVLRYSPFYNKLKEIVESKKLGELVSIQYNENIGYWHFAHSFTRGNWRNSNETSPLILAKSCHDMDILLYLVGSRCKKISAFGSLKHLNNQNASGEMAQNCLQCLVEKKCPYSAKRIYLEKDRSINRAVHINPTEENLLNILKTSPYGRCVYRCDNNVVDNMVNILQFENGVTATFNLCAFTKENGRTIKLMFSHGEVGGDLNKNEIRIKEFGKNEEIVMNPSNQQNMVEEYDRNLIAEFIKLVSNKELEKGRVAAKEAIQSHVMAFAAEYSRVSDEVVYIEEFFDSAKQMTKEIEETEGHHHHHH | soluble |
